Reference: patent publication US20210388087A1 (Chugai, published 2021)
Where a chain is given by its changes, count along the chain named. In names and notes the source's numbering stands.

T1: Human CD3eg linker (human)
T1 construct: single-chain construct; also called recombinant human CD3
T1 chain: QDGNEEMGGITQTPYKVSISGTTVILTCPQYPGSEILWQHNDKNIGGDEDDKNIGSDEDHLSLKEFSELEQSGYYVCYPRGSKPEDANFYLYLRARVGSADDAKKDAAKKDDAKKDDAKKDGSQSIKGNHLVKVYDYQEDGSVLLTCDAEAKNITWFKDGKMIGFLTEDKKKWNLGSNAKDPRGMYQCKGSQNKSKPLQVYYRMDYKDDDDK

B1: dBBDu183H V100iE/dBBDu072L (antibody, name in Kabat numbering, V domains shown)
VH: QVQLVESGGGLVQPGRSLRLSCAASGFTFSNAWMHWVRQAPGKGLEWVAQIKDKGNAYAAYYAPSVKGRFTISRDDSKNSIYLQMNSLKTEDTAVYYCHYVHYASASTVLPAFGEDAWGQGTTVTVSS
VL: DIVMTQSPLSLPVTPGEPASISCQASQELVHMNRNTYLHWYQQKPGQAPRLLIYKVSNRFPGVPDRFSGSGSGTDFTLKISRVEAEDVGVYYCAQGTSVPFTFGQGTKLEIK
B2: dBBDu183H Y97T/dBBDu072L (antibody, name in Kabat numbering, V domains shown)
VH: B1 VH with Y103T, E115V
VL: B1 VL
B3: dBBDu183H Y97F/dBBDu072L (antibody, name in Kabat numbering, V domains shown)
VH: B1 VH with Y103F, E115V
VL: B1 VL
B4: dBBDu183H Y97E/dBBDu072L (antibody, name in Kabat numbering, V domains shown)
VH: B1 VH with Y103E, E115V
VL: B1 VL
B5: dBBDu183H Y94F/dBBDu072L (antibody, name in Kabat numbering, V domains shown)
VH: B1 VH with Y100F, E115V
VL: B1 VL
B6: dBBDu183H Y94T/dBBDu072L (antibody, name in Kabat numbering, V domains shown)
VH: B1 VH with Y100T, E115V
VL: B1 VL
B7: dBBDu183H V100iH/dBBDu072L (antibody, name in Kabat numbering, V domains shown)
VH: B1 VH with E115H
VL: B1 VL
B8: dBBDu183H V100iG/dBBDu072L (antibody, name in Kabat numbering, V domains shown)
VH: B1 VH with E115G
VL: B1 VL
B9: dBBDu183H V100iN/dBBDu072L (antibody, name in Kabat numbering, V domains shown)
VH: B1 VH with E115N
VL: B1 VL
B10: dBBDu183H Y94S/dBBDu072L (antibody, name in Kabat numbering, V domains shown)
VH: B1 VH with Y100S, E115V
VL: B1 VL
B11: dBBDu183H Y94K/dBBDu072L (antibody, name in Kabat numbering, V domains shown)
VH: B1 VH with Y100K, E115V
VL: B1 VL
B12: dBBDu183H Y97K/dBBDu072L (antibody, name in Kabat numbering, V domains shown)
VH: B1 VH with Y103K, E115V
VL: B1 VL
B13: dBBDu183H V100iR/dBBDu072L (antibody, name in Kabat numbering, V domains shown)
VH: B1 VH with E115R
VL: B1 VL
B14: dBBDu183H Y94E/dBBDu072L (antibody, name in Kabat numbering, V domains shown)
VH: B1 VH with Y100E, E115V
VL: B1 VL
B15: dBBDu183H Y97H/dBBDu072L (antibody, name in Kabat numbering, V domains shown)
VH: B1 VH with Y103H, E115V
VL: B1 VL
B16: dBBDu183H V100iF/dBBDu072L (antibody, name in Kabat numbering, V domains shown)
VH: B1 VH with E115F
VL: B1 VL
B17: dBBDu183H Y97N/dBBDu072L (antibody, name in Kabat numbering, V domains shown)
VH: B1 VH with Y103N, E115V
VL: B1 VL
B18: dBBDu183H V100iY/dBBDu072L (antibody, name in Kabat numbering, V domains shown)
VH: B1 VH with E115Y
VL: B1 VL
B19: dBBDu183H Y97Q/dBBDu072L (antibody, name in Kabat numbering, V domains shown)
VH: B1 VH with Y103Q, E115V
VL: B1 VL
B20: dBBDu183H Y97R/dBBDu072L (antibody, name in Kabat numbering, V domains shown)
VH: B1 VH with Y103R, E115V
VL: B1 VL
B21: dBBDu183H Y97G/dBBDu072L (antibody, name in Kabat numbering, V domains shown)
VH: B1 VH with Y103G, E115V
VL: B1 VL
B22: dBBDu183H Y94N/dBBDu072L (antibody, name in Kabat numbering, V domains shown)
VH: B1 VH with Y100N, E115V
VL: B1 VL
B23: dBBDu183H Y94W/dBBDu072L (antibody, name in Kabat numbering, V domains shown)
VH: B1 VH with Y100W, E115V
VL: B1 VL
B24: dBBDu183H V100iQ/dBBDu072L (antibody, name in Kabat numbering, V domains shown)
VH: B1 VH with E115Q
VL: B1 VL
B25: dBBDu183H Y97W/dBBDu072L (antibody, name in Kabat numbering, V domains shown)
VH: B1 VH with Y103W, E115V
VL: B1 VL
B26: dBBDu183H Y94D/dBBDu072L (antibody, name in Kabat numbering, V domains shown)
VH: B1 VH with Y100D, E115V
VL: B1 VL
B27: dBBDu183H V100iT/dBBDu072L (antibody, name in Kabat numbering, V domains shown)
VH: B1 VH with E115T
VL: B1 VL
B28: dBBDu183H Y94G/dBBDu072L (antibody, name in Kabat numbering, V domains shown)
VH: B1 VH with Y100G, E115V
VL: B1 VL
B29: dBBDu183H Y94Q/dBBDu072L (antibody, name in Kabat numbering, V domains shown)
VH: B1 VH with Y100Q, E115V
VL: B1 VL
B30: dBBDu183H Y97V/dBBDu072L (antibody, name in Kabat numbering, V domains shown)
VH: B1 VH with Y103V, E115V
VL: B1 VL
B31: dBBDu183H Y97D/dBBDu072L (antibody, name in Kabat numbering, V domains shown)
VH: B1 VH with Y103D, E115V
VL: B1 VL
B32: dBBDu183H V100iK/dBBDu072L (antibody, name in Kabat numbering, V domains shown)
VH: B1 VH with E115K
VL: B1 VL
B33: dBBDu183H V100iS/dBBDu072L (antibody, name in Kabat numbering, V domains shown)
VH: B1 VH with E115S
VL: B1 VL
B34: dBBDu183H V100iW/dBBDu072L (antibody, name in Kabat numbering, V domains shown)
VH: B1 VH with E115W
VL: B1 VL
B35: dBBDu183H Y97S/dBBDu072L (antibody, name in Kabat numbering, V domains shown)
VH: B1 VH with Y103S, E115V
VL: B1 VL
B36: dBBDu183H Y94R/dBBDu072L (antibody, name in Kabat numbering, V domains shown)
VH: B1 VH with Y100R, E115V
VL: B1 VL
B37: dBBDu183H Y94V/dBBDu072L (antibody, name in Kabat numbering, V domains shown)
VH: B1 VH with Y100V, E115V
VL: B1 VL
B38: dBBDu183H Y94H/dBBDu072L (antibody, name in Kabat numbering, V domains shown)
VH: B1 VH with Y100H, E115V
VL: B1 VL

Molecular target: T1, Human CD3eg linker
Experiment: SPR, vs unmutated H183/L072

Going from B1 to B2, the “fold change of affinity” value falls from 1.4 fold to 0 fold.

B3 and B4 are the same in “fold change of affinity” value: 0 fold for the first, 0 fold for the second.

Compared with B5, B6 is lower in “fold change of affinity” value: 0.4 fold for the first, 0.3 fold for the second.

Going from B7 to B8, the “fold change of affinity” value falls from 2.2 fold to 1.8 fold.

First: B9
Second: B10
The “fold change of affinity” value of the first is higher: 5 fold for the first, 0 fold for the second.

B11 and B12 are the same in “fold change of affinity” value: 0 fold for the first, 0 fold for the second.

Compared with B13, B14 is lower in “fold change of affinity” value: 4 fold for the first, 0 fold for the second.

First: B15
Second: B16
The “fold change of affinity” value of the first is lower: 0 fold for the first, 3.2 fold for the second.

First: B17
Second: B18
The “fold change of affinity” value of the first is lower: 0 fold for the first, 3 fold for the second.

B19 and B20 are the same in “fold change of affinity” value: 0 fold for the first, 0 fold for the second.

B21 and B22 are the same in “fold change of affinity” value: 0 fold for the first, 0 fold for the second.

Going from B23 to B24, the “fold change of affinity” value rises from 0.4 fold to 3.6 fold.

Compared with B25, B26 is lower in “fold change of affinity” value: 0.2 fold for the first, 0 fold for the second.

First: B27
Second: B28
The “fold change of affinity” value of the first is lower: 1 fold for the first, 1.1 fold for the second.

Compared with B29, B30 is lower in “fold change of affinity” value: 0.4 fold for the first, 0 fold for the second.

Compared with B31, B32 is higher in “fold change of affinity” value: 0 fold for the first, 2.4 fold for the second.

Going from B33 to B34, the “fold change of affinity” value rises from 1.9 fold to 4.9 fold.

Going from B35 to B36, the “fold change of affinity” value rises from 0 fold to 0.3 fold.

Going from B37 to B38, the “fold change of affinity” value falls from 2.6 fold to 0.5 fold.
